Laboratory results: patent publication US20250059285A1 (ARGENX, published 2025)

T1: recombinant human Charcot-Leyden crystals (crystalline galectin-10) (human, UniProt Q05315 2-142, limits assumed)
T1 sequence: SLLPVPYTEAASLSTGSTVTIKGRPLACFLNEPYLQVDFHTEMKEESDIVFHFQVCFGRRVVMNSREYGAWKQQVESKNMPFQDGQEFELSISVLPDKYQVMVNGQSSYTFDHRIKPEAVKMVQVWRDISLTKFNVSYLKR

T2: human Gal10-His (human, UniProt Q05315 2-142, limits assumed)
T2 construct: also called hGal10-His; human Gal10-His tagged; not shown: His tag
T2 sequence: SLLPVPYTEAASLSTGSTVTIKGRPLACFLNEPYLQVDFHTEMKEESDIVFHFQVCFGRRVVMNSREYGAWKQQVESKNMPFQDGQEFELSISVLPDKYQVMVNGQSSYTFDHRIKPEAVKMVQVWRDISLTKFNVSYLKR


Assays:
[1] = target: T1, recombinant human Charcot-Leyden …; assay: cell-based or functional assay
human Gal10-His [2] = target: T2, human Gal10-His; assay: SPR, summary table, human Gal10
[3] = target: T3, cynomolgus Gal10-His (WGS isoform) (cynomolgus); assay: SPR, summary table, cynomolgus_WGS Gal10
T3 construct: also called cynomolgus antigen

human Gal10-His [4] = target: T2, human Gal10-His; assay: SPR, overview table of lead Fab candidates
human Gal10-His [5] = target: T2, human Gal10-His; assay: SPR against T0 reference; sample 4 weeks at 37 C
Method: (§1) The functional active concentration of the candidates was then assessed by SPR on a Biacore 3000 instrument (FIG. 4). All samples were evaluated with methods meeting the standard qualification criteria. Aliquots were tested at predefined test concentrations against titration curves from reference samples (T0, −80° C. storage) and in the presence of quality control (QC) samples covering a range of 70-130% relative activity (% RA) towards the reference material.
(§2) comparison/reference ⁽¹⁾ samples correspond to aliquots kept at +37° C. for 4 weeks ⁽²⁾ samples correspond to aliquots kept at +5° C. for 4 weeks prior to nebulization. In brief, samples were nebulized with an Aerogen Solo active vibrating mesh nebulizer that converted a drug solution into an inhalable aerosol. Three different devices for each time-point were used per clone and results are reported by the device (nebulizer) serial number. In case of device fouling, indicated by longer nebulization times […]

human Gal10-His [6] = target: T2, human Gal10-His; assay: SPR Biacore 3000, purified hFab on captured Gal10-His
Method: (§3) The binding properties of the selected Fab clones to human Gal10 were analyzed via a capture method established on a Biacore 3000 instrument. Two concentrations of the selected Fab clones were tested on human Gal10-His immobilized on a CM5 chip coated with a monoclonal anti-His. As controls, the clone g7B07 and g7B07_N53A were injected at the beginning and the end of the run. Briefly, a CM5 chip was coated with a monoclonal anti-His antibody (4000 RU), then a fixed concentration of the human Gal10-His (25 μg/mL) was captured on the anti-His chip before receiving two concentrations of the clones in the human Fab backbone.

human Gal10-His [7] = target: T2, human Gal10-His; assay: summary of periplasmic extract screening (BLI or SPR)
human Gal10-His [8] = target: T2, human Gal10-His; assay: SPR slope against calibrators on captured Gal10-His; T0 sample
Method: (§4) The binding properties of the seven selected clones following two weeks of temperature stress was analysed using an optimized capture method on a Biacore 3000 instrument. The binding properties of the stressed samples were determined, compared to the calibration point, and expressed as a percentage of Relative Activity (% RA).
(§5) Briefly, a capture method was set-up on a Biacore 3000 instrument. For this purpose, a CM5 chip was coated with a monoclonal anti-His antibody (4000 RU), then a fixed concentration of the human Gal10-His (25 μg/mL) was captured on the anti-His chip before receiving duplicate injections of the calibrators, QC samples and temperature stressed samples of each clone. The slope of each injected sample was then calculated using the BIA evaluation software. Concentrations of the QC samples and temperature stressed samples were back-calculated by interpolating the obtained slopes of these samples to the calibrator curve. Obtained values were within +/−20% of the nominal concentration of the tested samples and are expressed as average relative accuracy (avg % RA) (Table 13).

human Gal10-His [9] = target: T2, human Gal10-His; assay: SPR against T0 reference; sample 4 weeks at 5 C, then nebulized
Method: as §1, §2

human Gal10-His [10] = target: T2, human Gal10-His; assay: SPR Biacore 3000, Fab periplasmic extract on Gal10-His-coated CM5
Method: The binding properties of the Fabs (periplasmic extract) to human Gal10-His were analyzed by SPR with a Biacore 3000 instrument. For this purpose, the diluted periplasmic extract was applied on a CM5 chip coated with human Gal10-His. As a positive control, a 20 nM injection of the purified g7B07 clone in the human Fab backbone was included at the beginning and end of the run.
The binding capacity of the Fab periplasmic extract was analyzed by SPR technology using a Biacore 3000. Briefly, diluted periplasmic extracts were injected on CM5 chip coated with 2500 RU of Gal10-His. The amplitude of the binding (Rmax), the dissociation (off-rate) of each clone, as well as the off-rate fold change compared to the controls (g7B07 and g7B07_N53A) are indicated. Clones g20H09 and g23H09 had similar or better off rate compared to the control g7B07 (Table 10). The randomized part of the CDR2 sequence is underlined (Table 10).

human Gal10-His [11] = target: T2, human Gal10-His; assay: SPR slope against calibrators on captured Gal10-His; sample 2 weeks at 37 C
Method: as §4, §5

human Gal10-His [12] = target: T2, human Gal10-His; assay: SPR Biacore 3000, purified hFab (2 conc.) on Gal10-His captured by anti-His CM5
Method: as §3

human Gal10-His [13] = target: T2, human Gal10-His; assay: competition ELISA on coated Gal10-His; hFab 20 ug/mL, competitor g7B07-hFab-Biot, streptavidin-HRP
Method: An epitope binning analysis of the humanized Fab clones was carried out in comparison with the humanized Fab of g7B07.
For this experiment, a sub-optimal concentration of the biotinylated clone g7B07-humanized Fab was added to the Gal10 coated plate and pre-incubated with the selected clones. The percentage competition with g7B07 was then determined (Table 17). Motavizumab (Mota) in a human Fab backbone was used as a negative control (0% competition). Clone g7B07 was used as the positive control for competition and was therefore set as the 100% competition value. The anti-human specific clone 1D11 (binding to Tyrosine 69 residue) was included in the tested panel as a negative control for competition with 7B07 for Gal10 binding because it was known that clone 1D11 binds to the opposite side of Gal10 (including Tyrosine 69).

human Gal10-His [14] = target: T2, human Gal10-His; assay: SPR Biacore 3000, hFab on captured human Gal10-His
Text: (§6) For this purpose, two approaches were used. In the first, two concentrations of the selected clones were applied on cynomolgus (WGS isoform) Gal10-His capture on a CM5 chip coated with a monoclonal anti-His antibody. The second approach involved a serial dilution that was applied on human or cynomolgus (WGS isoform) Gal10-His in the same set-up.
Further characterization of the cynomolgus cross-reactivity of these clones highlighted g24F02_N53A and g23H09.

human Gal10-His [15] = target: T2, human Gal10-His; assay: SPR Biacore 3000, hFab on human Gal10-His captured by anti-His CM5
Method: (§7) The binding properties of the selected clones to human and cynomolgus Gal10 was analyzed via a capture method established on a Biacore 3000 instrument.
as §6

[16] = target: T3, cynomolgus Gal10-His (WGS isoform); assay: SPR Biacore 3000, hFab on cynomolgus Gal10-His (WGS) captured by anti-His CM5
Method: as §7, §6

human Gal10-His [17] = target: T2, human Gal10-His; assay: SPR Biacore 3000, hFab on captured human Gal10-His; column head prints (M), the text gives nM
Method: as §7, §6

[18] = target: T3, cynomolgus Gal10-His (WGS isoform); assay: SPR Biacore 3000, hFab on captured cynomolgus Gal10-His (WGS); column head prints (M), the text gives nM
Method: as §7, §6

Binder	crystal dissolution % Relative Activity towards the reference T0 after 2 h, nebulized [1] [%]	crystal dissolution % Relative Activity towards the reference T0 after 2 h, stressed [1] [%]	recGal10 crystal dissolution EC50 (T2 h), Assay 1, nebulized [1] [µg/mL]	recGal10 crystal dissolution EC50 (T2 h), Assay 1, stressed (4 W at 37 C) [1] [µg/mL]	recGal10 crystal dissolution EC50 (T2 h), Assay 1, unstressed (T0) [1] [µg/mL]	Kd (human Gal10-His [2]) [nM]	koff (human Gal10-His [2]) [s⁻¹]	Kd [3] [nM]	koff [3] [s⁻¹]	Kd (human Gal10-His [4]) [nM]	koff (human Gal10-His [4]) [s⁻¹]	% relative activity by SPR (human Gal10-His [5]) [%]	% Relative Activity (RA) on Biacore (human Gal10-His [8]) [%]	% relative activity by SPR (human Gal10-His [9]) [%]	% Relative Activity (RA) on Biacore (human Gal10-His [11]) [%]	Kd (human Gal10-His [12]) [nM]	kd-fold drop vs g7B07 (human Gal10-His [12]) [fold]	koff (human Gal10-His [12]) [s⁻¹]	kon (human Gal10-His [12]) [M⁻¹ s⁻¹]	% Competition against g7B07-Biot (human Gal10-His [13]) [%]	other results
g20H09 (Fab) (Fab, V domains shown, same VH/VL) VH: EVQLLESGGGLVQPGGSLRLSCAASGFTFRSYDMSWVRQAPGKGLEWVSAIKWHRITYYADSVKGRFTISRDNSKNTLYLQMNSLRAEDTAVYYCATTHGIGTLGFGSWGQGTLVTVSS VL: SYELTQPLSVSVALGQTARITCDGNNIGSKSAQWYQQKPGQAPVLVIYADEYRPEGIPERFSGSNSGNTATLTISRAQAGDEADYYCQVWDGSAAVFGGGTQLTVL	66	96	395	272	260	17.5	0.015	22	0.046	17.7	0.047	101	110	97	86	17.5	0.3	0.015	860000	93.2	fold higher dissociation rate than g7B07 (human Gal10-His [6]): 3 fold; kd, fold compared to g7B07 (BLI or SPR) (human Gal10-His [7]): 0.8 fold; Fold off-rate compared to g7B07 (human Gal10-His [10]): 1.3 fold; koff (human Gal10-His [10]): 0.0088 s⁻¹; Mean OD value (human Gal10-His [13]): 0.33 OD
g24F02_N53A (human Fab) (Fab, V domains shown, Human Fab backbone: human CH1 and human lambda constant domain (pUPEX vectors); also called g24F02_N53A_2W) VH: EVQLLESGGGLVQPGGSLRLSCAASGFTFSSYAMSWVRQAPGKGLEWVSAINAGGGSTSYADSVKGRFTISRDNSKNTLYLQMNSLRAEDTAVYYCAKGLRVGVLGFDYWGQGTLVTVSS VL: SYELTQPLSVSVALGQTARITCDGNNIGSKSAQWYQQKPGQAPVLVIYADEYRPEGIPERFSGSNSGNTATLTISRAQAGDEADYYCQVWDGSAAVFGGGTQLTVL	120	117	–	–	–	1.4	0.0018	8	0.0088	1.4	0.0018	103	98	111	99	2.3	2.8	0.0016	710000	99	recGal10 crystal dissolution EC50 (T2 h), Assay 2, nebulized [1]: 159 µg/mL; recGal10 crystal dissolution EC50 (T2 h), Assay 2, stressed (4 W at 37 C) [1]: 164 µg/mL; recGal10 crystal dissolution EC50 (T2 h), Assay 2, unstressed (T0) [1]: 191 µg/mL; fold better affinity than g7B07 (human Gal10-His [14]): 6.3 fold; fold better off-rate than g7B07 (human Gal10-His [14]): 3.5 fold; fold better affinity than g7B07 (human Gal10-His [6]): 4.7 fold; Amplitude R0 (human Gal10-His [15]): 647 RU; koff (human Gal10-His [15]): 0.0018 s⁻¹; kon (human Gal10-His [15]): 1.3e+06 M⁻¹ s⁻¹; Amplitude R0 [16]: 544 RU; koff [16]: 0.0088 s⁻¹; kon [16]: 1.1e+06 M⁻¹ s⁻¹; Kd (human Gal10-His [17]): 1.43 nM; Mean OD value (human Gal10-His [13]): 0.2 OD; Kd [18]: 8 nM
g7B07_N53A (human Fab) (Fab, V domains shown, VH assembled by inference as for g7B07; Human Fab backbone; also called g7B07_N53A (mean)) VH: EVQLLESGGGLVQPGGSLRLSCAASGFTFRSYDMSWVRQAPGKGLEWVSAIKAGGGITYYADSVKGRFTISRDNSKNTLYLQMNSLRAEDTAVYYCATTHGIGTLGFGSWGQGTLVTVSS VL: SYELTQPLSVSVALGQTARITCDGNNIGSKSAQWYQQKPGQAPVLVIYADEYRPEGIPERFSGSNSGNTATLTISRAQAGDEADYYCQVWDGSAAVFGGGTQLTVL	53	82	584	379	309	–	–	–	–	145	0.079	95	–	94	–	144	0.06	0.078	640000	–	Amplitude R0 (human Gal10-His [15]): 119 RU; koff (human Gal10-His [15]): 0.079 s⁻¹; kon (human Gal10-His [15]): 540000 M⁻¹ s⁻¹; Amplitude R0 [16]: 30 RU; koff [16]: 0.21 s⁻¹; kon [16]: 510000 M⁻¹ s⁻¹; Kd (human Gal10-His [17]): 145 nM; Kd [18]: 417 nM
